Test results reported in PMC5657976.

Columns and labels:
[1] = biological target: GST-obscurin-Ig58/Ig59^WT (human) (UniProt Q5VST9); test: pull-down; 12 ug GST fusion protein on glutathione-Sepharose with 5 ul of the translation reaction; 10 mM Tris-HCl pH 7.9, 150 mM NaCl, 0.5% NONIDET P-40, 1 mM DTT, 1.5 hrs at 4°C; anti-myc Western blot, densitometry normalised to GST protein
[2] = biological target: GST-linked titin ZIg9/ZIg10 (human) (UniProt Q8WZ42); test: SPR; Nicoya OpenSPR, GST-linked titin ZIg9/ZIg10 immobilised on an Au-GST chip; obscurin Ig58/Ig59 injected at 50 ul/min; 20 mM Tris pH 7.5, 50 mM NaCl; 27°C (methods; 22°C in the legend of S11 Fig); 1:1 interaction model

Row | bound fraction, fold over GST-Ig58/Ig59^MUT [1] | Kd [2] | Substance
1 | 2 fold |  | myc-tagged titin domains ZIg9/ZIg10 (from UniProt Q8WZ42-12 1-35991) (domain or fragment)
2 |  | 1600 nM | obscurin Ig58/Ig59 p.Arg4444Trp (domain or fragment)
3 |  | 108 nM | obscurin Ig58/Ig59 (wild type) (from UniProt Q5VST9 1-7968) (domain or fragment)
